US20060148016A1

Target: Alexa Fluor 594 labelled calmodulin (Molecular Probes)
Test: gel filtration assay (Example 3): Alexa Fluor 594 labelled calmodulin eluting with the particles; reference is ferritin particles without binding molecule

Ferritin based particles expressing cbp on their surface (CBP-Human ferritin light chain fusion protein, plasmid pCBPHFI) (from UniProt P02792 2-175) (peptide)
fold signal as compared to particles produced with pET-26(+)rHuLFt: 4.1 fold
